T1: Hs-laforin (Homo sapiens, UniProt O95278)
T1 sequence (O95278 1-331): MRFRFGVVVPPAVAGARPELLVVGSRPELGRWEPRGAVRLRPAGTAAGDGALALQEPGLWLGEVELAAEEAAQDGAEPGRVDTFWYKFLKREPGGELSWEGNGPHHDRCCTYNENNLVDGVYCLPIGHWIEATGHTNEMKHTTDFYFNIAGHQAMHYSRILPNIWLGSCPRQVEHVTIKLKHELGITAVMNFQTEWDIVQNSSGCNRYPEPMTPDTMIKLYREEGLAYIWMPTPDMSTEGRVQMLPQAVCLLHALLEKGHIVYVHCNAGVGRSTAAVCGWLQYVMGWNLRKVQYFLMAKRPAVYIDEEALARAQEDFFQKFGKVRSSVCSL


Legend:
[1] = target: T1, Hs-laforin; assay: p-NPP hydrolysis, absorbance at […] nm; type: biochemical; settings: pH 5.5; 37°C; 2 mM DTT; artificial substrate
[2] = substrate: O=[N+]([O-])c1ccc(OP(=O)(O)O)cc1; assay: purified protein; settings: pH 6.0, 37°C, 2 mM DTT, artificial substrate

Molecule | Km [1] | Km [2] | Vmax [2] | kcat [2] | kcat/Km [2]
O=[N+]([O-])c1ccc(OP(=O)(O)O)cc1 [p-NPP] | 323 µM |  |  |  | 
Δ52-SEX4 (Arabidopsis thaliana) (protein) AVSESKSSSEMSGVAKDEEKSDEYSQDMTQAMGAVLTYRHELGMNYNFIRPDLIVGSCLQTPEDVDKLRKIGVKTIFCLQQDPDLEYFGVDISSIQAYAKKYSDIQHIRCEIRDFDAFDLRMRLPAVVGTLYKAVKRNGGVTYVHCTAGMGRAPAVALTYMFWVQGYKLMEAHKLLMSKRSCFPKLDAIRNATIDILTGLKRKTVTLTLKDKGFSRVEISGLDIGWGQRIPLTLDKGTGFWILKRELPEGQFEYKYIIDGEWTHNEAEPFIGPNKDGHTNNYAKVVDDPTSVDGTTRERLSSEDPELLEEERSKLIQFLETCSEAEV |  | 410 µM | 2.41 µmol/min/mg | 1.54 s⁻¹ | 3756 M⁻¹ s⁻¹

Reference: paper PMC2064834 (The Journal of Cell Biology, 2007)
